T1: α11β1 expressed on the surface of CHO-K1 cells (Homo sapiens, UniProt Q9UKX5)
T1 construct: expressed in transfected cells; host or cells: CHO-K1
T1 sequence (Q9UKX5 23-1188): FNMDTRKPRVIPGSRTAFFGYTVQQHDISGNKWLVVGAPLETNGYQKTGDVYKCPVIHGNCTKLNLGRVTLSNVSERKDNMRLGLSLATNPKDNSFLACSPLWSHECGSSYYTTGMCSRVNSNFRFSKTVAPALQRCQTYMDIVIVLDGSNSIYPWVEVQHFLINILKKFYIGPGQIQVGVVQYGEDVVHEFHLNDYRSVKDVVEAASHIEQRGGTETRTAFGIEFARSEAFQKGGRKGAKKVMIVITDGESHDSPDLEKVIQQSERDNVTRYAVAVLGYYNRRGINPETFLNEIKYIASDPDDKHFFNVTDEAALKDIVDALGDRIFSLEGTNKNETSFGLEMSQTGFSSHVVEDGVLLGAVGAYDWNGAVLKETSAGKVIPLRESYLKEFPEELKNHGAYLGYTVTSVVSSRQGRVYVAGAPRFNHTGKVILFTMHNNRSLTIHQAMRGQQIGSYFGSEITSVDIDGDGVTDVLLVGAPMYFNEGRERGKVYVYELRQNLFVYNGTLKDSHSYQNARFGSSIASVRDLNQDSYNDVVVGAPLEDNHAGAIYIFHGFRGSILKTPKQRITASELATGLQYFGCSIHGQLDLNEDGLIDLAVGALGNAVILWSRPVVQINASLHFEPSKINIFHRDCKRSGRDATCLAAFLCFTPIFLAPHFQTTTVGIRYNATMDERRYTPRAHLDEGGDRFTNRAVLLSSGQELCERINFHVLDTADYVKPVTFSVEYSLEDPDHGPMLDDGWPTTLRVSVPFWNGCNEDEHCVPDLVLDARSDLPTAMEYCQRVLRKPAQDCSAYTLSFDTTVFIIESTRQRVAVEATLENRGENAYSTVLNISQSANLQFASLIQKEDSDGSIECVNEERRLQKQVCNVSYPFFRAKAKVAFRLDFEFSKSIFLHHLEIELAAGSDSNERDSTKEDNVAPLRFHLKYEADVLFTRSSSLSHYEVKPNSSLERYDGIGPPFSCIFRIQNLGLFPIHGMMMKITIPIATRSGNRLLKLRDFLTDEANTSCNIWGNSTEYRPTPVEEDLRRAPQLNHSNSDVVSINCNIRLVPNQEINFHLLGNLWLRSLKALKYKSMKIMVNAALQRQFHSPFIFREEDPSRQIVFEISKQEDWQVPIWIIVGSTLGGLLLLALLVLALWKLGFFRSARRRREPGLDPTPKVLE


Legend:
[1] = biological target: T1, α11β1 expressed on the surface of CHO-K1 cells; assay: FACS antibody binding to CHO-K1 cells expressing human α11; settings: for CHO-K1 binding EC50 (in words): FACS; for CHO-K1 FACS: binding Yes/No
Procedure: 200,000 cells (wild-type CHO-K1 cells or CHO-K1 cells expressing human α11) were incubated with each antibody at desired concentrations in FACS buffer for 30 min at 4° C. Then, the cells were washed with FACS buffer and incubated with secondary antibody at 1:100 dilution for 30 minutes at 4° C. Cells were then washed and fixed with 1% PFA in PBS for 20 minutes at room temperature; washed again and read on a cytometer in FACS buffer.
Since integrins are large, transmembrane receptors that exist in different conformational shapes, experiments were performed to confirm that the novel antibodies also bound cell-expressed α11β1. A CHO-K1 cell line that endogenously expressed high levels of the β1 subunit was engineered to stably express human α11 (CHO-K1 hu α11).
Binding EC50 was estimated using data from Fluorescence-activated cell sorting (FACS) performed with CHO-K1 hu α11β1 cells.

[2] = test system: Human Pulmonary Fibroblasts; assay: Fibroblast-to-Myofibroblasts Transition (FMT), αSMA expression; type: cell-based; settings: for inhibition of αSMA expression / FMT: TGFβ-induced FMT; for Inhibition of FMT: Yes/No
Procedure: Human Pulmonary Fibroblasts (ScienCell) were cultured in complete Fibroblast Growth Medium (ScienCell) until 80% confluent. Cells were washed and harvested using Accutase. Cells were seeded onto tissue culture-treated 96 well plates at 20,000 cells/well in complete Fibroblast Growth Medium. After 24 hours, cells were washed and starved in serum reduced medium for an additional 24 hours. After starvation, cells were treated with TGFβ-1 (R&D Systems) with or without anti-α11 antibodies. A polyclonal rabbit anti-human α11 antibody was used as a positive control. Appropriate IgG isotype controls were also included. After 48 hours, cells were harvested, fixed, permeabilized and stained with AlexaFluor488 Labeled Anti-αSMA (α-smooth muscle actin) (Invitrogen). Cells were acquired on a FACS Verse (Benton Dickson) to determine expression levels of αSMA. Data were analyzed by gating on single cells and determining the geometric Mean Fluorescence Intensity (gMFI) in the FITC channel for each sample. gMFI for each sample was normalized to the untreated control and presented as % inhibition.
In addition to the binding abilities described above, it is important for an anti-α11β1 antibody to inhibit the fibroblast-to-myofibroblast transition (FMT). It is now appreciated that myofibroblasts are a heterogeneous cell population, existing in different activation states, with the main function of producing and contracting collagen extracellular matrix (ECM). FMT is a multi-step event that is controlled by a changing mechanical environment in tissues undergoing repair. TGFβ is one of the potent factors that potentiates this process and alpha smooth muscle actin (αSMA) is one of the main markers that becomes overexpressed when fibroblasts are undergoing the transition to becoming myofibroblasts. The presence of αSMA enhances fibroblast contraction and guides myofibroblast activation through an intracellular feedback loop. Because αSMA is the main molecular marker of myofibroblasts, the ability of the novel anti-α11β1 mAbs to inhibit αSMA expression in TGFβ-induced FMT was tested.

Row | Molecule | CHO-K1 binding EC50 (in words) [1] | CHO-K1 FACS [1] | inhibition of αSMA expression / FMT [2] | Inhibition of FMT [2]
1 | 8-I14: mouse anti-α11β1 mAb; VH SEQ ID NO: 109, VL SEQ ID NO: 110 (antibody, V domains shown) VH: EVQLQQSGPELVKPGASVKKSCKASGYTFTDYYMHWVKQKPGQGLEWIGKIYPGSGNTHYNEKFKGKATLTADKSSSTAYMQLSSLTSEDSAVYFCATNYYGYRAMNYWGQGSSVTVSS VL: DIHLTQSPSSLSASLGERISLTCRASQDIYISLNWFQQKPDGTIKLLIYGTSSLDSGVPKRFSGSRSGSDYSLTISSLESEDFADYYCLQYASSPYTFGGGTKLEIK | low nanomolar range | Yes | only inhibited FMT | Yes
2 | 8-P20: mouse anti-α11β1 mAb; VH SEQ ID NO: 105, VL SEQ ID NO: 106 (antibody, V domains shown) VH: KVMLVESGGALVKPGGSLKLSCVASGFTFSNYAMSWVRQTPEKRLEWVATISSGGYYTYYPDSVKGRFTISRDNARNTLFLQMSSLRSEDTAMFYCAREDDYGRYSYTMDYWGQGTSVTVSS VL: DVVMTQTPLSLPVSLGDQVSISCRCSQSLVHSNGNTYLHWYLQKPGQSPQLLIYKISNRFSGVPDRFSGSGSGTDFTLKISRVEAEDLGVYFCSQSTHVPYTFGGGTELEIK | low nanomolar range | Yes | – | No
3 | 8-J17: mouse anti-α11β1 mAb; VH SEQ ID NO: 113, VL SEQ ID NO: 114 (antibody, V domains shown) VH: QVQLQQSGAELAKPGASVKMSCKASGYTFTNYWMHWVKQRPGQGLEWIGYINPNNGYTEYNQRFKDKATLTADRSSTTAYMQLSSLTSEDSAVYYCARSDIITTDYWGQGTTLTVSS VL: DVVMTQTPLSLPVSLGDQASISCRSSQSLVYSNGNTYLHWYLQKPGQSPKLLIYKVSNRFSGVPDRFSGSGSGTDFTLKISRVEAEDLGVYFCSQSTHVPWTFGGGTKLEIK | low nanomolar range | Yes | only inhibited FMT | Yes
4 | 8H8E9: rat anti-α11β1 mAb; VH SEQ ID NO: 149, VL SEQ ID NO: 150 (antibody, V domains shown) VH: MAVLVLLLCLVTFPSCALSQVQLKESGPGLVQPSQTLSLTCTVSGFSLTSNSVSWVRQAPGKGLEWMGAIWSGGSTDYNSALKSRLSISRDTSKSQVFLKMNSLQTEDTAIYFCTRSHWEPFDYWGQGVMVTVSS VL: MESQTQALISLLLWVYGTCGDIVMTQSPFSLAVSEGEMVTINCKSSQGLLSSGNQKNYLAWYQQRPGQSPKLLIYYASTRQSGVPDRFIGGGSGTDFTLTISDVQAEDLADYYCLQHYSYPPTFGSGTKLEIK | – | Yes | – | Yes
5 | 6E5C11: rat anti-α11β1 mAb; VH SEQ ID NO: 151, VL SEQ ID NO: 152 (antibody, V domains shown) VH: MAVLVLLLCLVTFPSCALSQVQLRESGPGLVQPSQTLSLTCTVSGFSLTSNSVTWVRQPPGKGLEWMGAIWSDGSTDYNSTLKSRLSISRDTSKSQVFLKMSSLQTEDTAIYFCTRSHWEPFDYWGQGVMVTVSS VL: MESQTQALISLLLWVYGTCGDIVMTQSPLSLAVSEGETVTMNCKSSQSLFSSGNQKNYLAWYQQKPGQSPKLLIYYASTRQSGVPDRFIGSGSGTDFTLTISDVQTEDLADYYCLQHYNYPPTFGSGTKLEIK | – | Yes | – | Yes

The next lines start with results.

Row | CHO-K1 binding EC50 (in words) [1] | CHO-K1 FACS [1] | Molecule | inhibition of αSMA expression / FMT [2] | Inhibition of FMT [2]
6 | not as potent | Yes | 9-E16: mouse anti-α11β1 mAb; VH SEQ ID NO: 111, VL SEQ ID NO: 112 (antibody, V domains shown) VH: EVQLQQSGPELVKPGASVKISCKASGYTFTDYYMHWVKQKPGQGLEWIGEIYPGSGNPYYNEKFKGKATLTADKSSSSAYMQLSSLTSEDSAVYFCARTSYGRVGTGFAYWGQGTLVTVSA VL: NFVMTQTPLSLPVSLGDQASISCRSSQSLLHSNGNTYLHWYLQKPGQSPKLLIYKVSNRFSGVPDRFSGSGSGTDFTLKINRVETEDLGIYFCSQSSHVPTFGAGTKLELK | FMT inhibitors | Yes
7 | not as potent | Yes | 9-G05: mouse anti-α11β1 mAb; VH SEQ ID NO: 103, VL SEQ ID NO: 104 (antibody, V domains shown) VH: EVQLQQSGPELVKPGASVKIPCKASGYTFPDYNMDWVKQSHGKSLEWIGYINPDNGGTIYNQKFKGKATLTVDKSSSTAYMELRSLTSEDTAVYYCARLDSSGYGYYAMDYWGQGTSVTVSS VL: DIVLTQSPASLAVSLGQRATISCRASESVDNYGISFMHWYQQKPGQPPKLLIYRASNLDSEIPARFSGSGSRTDFTLTIDPVETDDVATYYCQQSYKDPRTFGGGTKLEIK | FMT inhibitors | Yes
8 | – | Yes | 79E3E3: rat anti-α11β1 mAb; VH SEQ ID NO: 145, VL SEQ ID NO: 146 (antibody, V domains shown) VH: MDWLWNLLFLMVVAQSAQAQIQLVQSGPEVKKPGESVKISCKASGYTFTDYAMNWVKQAPGNGLKWMGWINTQTGKPTYADDFKQRFVFSLETSARTTYLQINNLNIEDTATYFCTRLGTGNTKGFAYWGQGTLVTVSS VL: MESQTHVLISLLLCVSGTCGDILINQSPASLTVSAGERVTMSCKSSQSLLYSENNQDYLAWYQQKPGQFPKLLIYGASNRHTGVPDRFTGSGSGTDFTLTISSVQAEDLADYYCEQTYRYPFTFGSGTKLEIK | failed to decrease αSMA expression | No
